For one substance, frequency of segments with C1 in the C1-S position (C1 tethers actin and Tm) results are on record in article PMC6281772.

This test concerns the target tropomyosin of native porcine cardiac thin filaments (porcine (endogenous in pig heart)) (UniProt P42639). Nature of the test: cryo-EM structure.

In turn, “C0C1 fragment of human cardiac myosin binding protein-C (C0-PA-C1) (domain or fragment)” had a frequency of segments with C1 in the C1-S position (C1 tethers actin and Tm) of 36%.
